In the DeepSol protein solubility set:

Assay: soluble on expression in E. coli; label from the status in PepcDB or PDB records

Row | Sequence | soluble on expression in E. coli
1 | MSLSESVIADFVGKFNSEVAGRGDPIRGRVVLSQKRLVLAASEDDKLTIPLDSIFDIAVGQVPPDLGDFFDSTVTIAFEHRGKRLVAAIEAGDEKIEKFGTVLFKAIINGTETTVKERARVGGRVTEESFKTAKLFLTPGNVEFRRSDGSFNVDLKTVSDFDRNTREINGKGRPVLTVRHMKDGTAMTTLAAMASNRKMSILGRYLRREYAELMEEIEDVDLTKDKKEVLVAMYSTGDMDGMPLASILGKDSSQVSMILQDLAADGLVQDGSDGPTLTPTGKVVASRHLEDVNAEGHHHHHH | not soluble
2 | MSLSETATQAPQPANVLLEVNDLRVTFATPDGDVTAVNDLNFTLRAGETLGIVGESGSGKSQTAFALMGLLATNGRIGGSATFNGREILNLPERELNTLRAEQISMIFQDPMTSLNPYMRVGEQLMEVLMLHKGMSKAEAFEESVRMLDAVKMPEARKRMKMYPHEFSGGMRQRVMIAMALLCRPKLLIADEPTTALDVTVQAQIMTLLNELKREFNTAIIMITHDLGVVAGICDKVLVMYAGRTMEYGKARDVFYQPVHPYSIGLLNAVPRLDSEGAEMLTIPGNPPNLLRLPKGCPFQPRCPHAMEICNNAPPLEAFSPGRLRACFKPVEELL | not soluble
3 | MSLSEVDIAKADPAAASHPLLLNGDATVAQKNPGSVAENNLCSQYEEKVRPCIDLIDSLRALGVEQDLALPAIAVIGDQSSGKSSVLEALSGVALPRGSGIVTRCPLVLKLKKLVNEDKWRGKVSYQDYEIEISDASEVEKEINKAQNAIAGEGMGISHELITLEISSRDVPDLTLIDLPGITRVAVGNQPADIGYKIKTLIKKYIQRQETISLVVVPSNVDIATTEALSMAQEVDPEGDRTIGILTKPDLVDKGTEDKVVDVVRNLVFHLKKGYMIVKCRGQQEIQDQLSLSEALQREKIFFENHPYFRDLLEEGKATVPCLAEKLTSELITHICKSLPLLENQIKETHKRITEELQKYGVDIPEDENEKMFFLIDKINAFNQDITALMQGEETVGEEDIRLFTRLRHEFHKWSTIIENNFQEGHKILSRKIQKFENQYRGRELPGFVNYRTFETIVKQQIKALEEPAVDMLHTVTDMVRLAFTDVSIKNFEEFFNLHRTAKSKIEDIRAEQEREGEKLIRLHFQMEQIVYCQDQVYRGALQKVREKELEEEKKKKSWDFGAFQSSSATDSSMEEIFQHLMAYHQEASKRISSHIPLIIQFFMLQTYGQQLQKAMLQLLQDKDTYSWLLKERSDTSDKRKFLKERLARLTQARRRLAQFPGEGHHHHHH | soluble
4 | MSLSFQMKYDIRLRFEVEGIVEKTDVIGAIFGQTENLFGDEFDLRELQDKGRLGRIIVEVKTKGGKSEGEIIIPSNLDRIETALIAAMVESVDKVGPYNSKFELIEIEDIRAEKLKKIIERAKGILSSWSKEKSLDIKEVINEISSAVKVGEITEYGPERLPAGPDVDKDPNLIIVEGRADVINLLRYGYKNVIAVEGATSRIPETLINLSKMKKTVIAFLDGDHGGDLILKELLSNNVKIDFVARAPIGREVEELTGKEIAKALSNMMPLTQYLKKVQEAEQAIAKNVIAKEEKPIQSETTQQVVQITLPQNILEEIKKLPGTLEGVLYDNNWNLIEKVQVRDIIPKLEAYEDNKVAYIIFDGVITQRLLDLASQKNIKMIIGARIGGINKRPQNVDILTFTDIISSEGHHHHHH | soluble
5 | MSLSGETELTFWTFSGLHEQFYVEMVKEWNKKYPDRKIKLNTVVYPYGQMHDNLSISLIAGEGVPDIADVELARFSNFLKGSDIPLADLTPLIEKDRDKFVEARLTLYSKNGKLYGLDTHVGTTVMFYNMDVMKKAGVNPDDIKTWDDYHKAGQKVRKVTGKPMGTVETNDSATFLSMISQQNSGYFDKNGKLILNNDTNVKTLQYLKDMINDKTMIPAPGGGHHSEEYYGFMNQGGAASVLMPIWYMGRFIDYMPDLKGKIAIRPLPAWKEGGDRSAGLGGTATVVPKQSKHVELAKEFLAFAKGSEEGNKKLWSVLGFDPLRWDVWSSKELKEKNKYTDYFQNGTGIFSVLLDIKDEINPIYLHEDFAKASDLVNRSVLFDALKSQQKTPKQALDRAAGELKQKEGHHHHHH | soluble
6 | MSLSGTITFSTGTRAGVYQKYGELLRTELRKDMPGLDVRLMTSAGSQENVERVASGEADFTIAAADAVETYKLAGSPGAEGLRGVTRLYDDYVQLVVPSDSDIQSVRDLRGKRVAIGLPNSGVRLIATRLLKAVGIDPETDITPRADGIDTGPGRLGDELDAFFWSGGVPTDGLKEIAESSAFRFVPIGDDLVTKLHRSGGATRYYRTTNMPESAYPTVQNGAVVPTMAVSNLLVTRADVDPRLTEWLTRTVLDSRDGIGAHVHSAQLVDLRTAIYTDPLELHEGARRYYRSVKEGHHHHHH | soluble
7 | MSLSINIKAVTDDNRAAILDLHVSQNQLSYIESTKVCLEDAKECHYYKPVGLYYEGDLVGFAMYGLFPEYDEDNKNGRVWLDRFFIDERYQGKGLGKKMLKALIQHLAELYKCKRIYLSIFENNIHAIRLYQRFGFQFNGELDFNGEKVMVKELEGGSHHHHHH | soluble
8 | MSLSIRLHIWGDYACFTRPEMKVERVSYDVMTPSAARGILEAIHWKPAIRWHIDRLHVLKPIRFQSIRRNEVGAKASASNAKSAMKKGSTEGLGIVVDENRQQRAAMVLTNVAYVIEAHFTMTEKAGPEDTPAKHLSMFNRRAAKGQCFHRPCLGTREFAAEFALLGENDPLPEAKPRLEVRDDDFGWMLHDIDFASGRNESHFFRAVMKDGVIEVPPFKSGEVVKEGHHHHHH | soluble
9 | MSLSKIKEIRTKVYQWNGKTVPPQNNFCTNASDLLYEKSDAMGSFRFHEWLICEVETNDGHIGIGNAALAPQLVKNTIDTYLKPLVVGEDPFDYAYIWEKMYRKTLNWGRRGLGMVAISAIDIAIWDVLGKITNKPVFKLLGGRTKEKIPVYASKLYAQPLKQLQEEAEKYKNEGFKMFKSRMGWGPKDGSEGMKKNLQLLEAVREVIGEDTDLMVDCYMGWNLDYTKRMLPKMAKFNLRWLEEPVHADDIHGYAELNNMNIIPISGGEHEFNLFGFKQLLELNAVSYIQYDNNRVGGFTVAQKINALAEAYQIPVVPHAGQMHNYHLTMSNFNCPISEFFPVHEVEVGNELFYYIFEGDPAPVDGMIDLDDNTPGLGLKVTDKYKSDFKIIEEGHHHHHH | soluble
10 | MSLSKIKSVRTRVWNWTGPTVPPTGNFCTNASDVLWDKGDAMSSFRFHQWLTCEVETDDGTIGIGNAALAPTVVKKAIDDWFAPMVIGEDPFDYAYLWEKMYRRSHAWGRKGIGMTAISAVDLAIWDLMGKLTGKPVFKLLGGRTKEKIPVYYSKLYSGPIDTMQAEAEEARKNNYPGYKMRFGWGPKDGMAGMRENLKRVEAVREVIGYDVDLMLECYQGWNLDYTKRMLPKLVKYEPRWLEEPVIADDVEGYRELNAMNIVPISGGEHEFSVIGCKDLIEKKAVSVLQYDTNRVGGITAAQKINAIAEAFQVPVIPHAGQMHNYHLTMANANCMISEYFPVFDVEVGNELFYYIFEGDPAAVDGFLDLDDNIPGLGISITDKYLKHFEIQEEGHHHHHH | soluble
11 | MSLSKILIAGCGDLGLELARRLTAQGHEVTGLRRSAQPMPAGVQTLIADVTRPDTLASIVHLRPEILVYCVAASEYSDEHYRLSYVEGLRNTLSALEGAPLQHVFFVSSTGVYGQEVEEWLDEDTPPIAKDFSGKRMLEAEALLAAYSSTILRFSGIYGPGRLRMIRQAQTPEQWPARNAWTNRIHRDDGAAFIAYLIQQRSHAVPERLYIVTDNQPLPVHDLLRWLADRQGIAYPAGATPPVQGNKKLSNARLLASGYQLIYPDYVSGYGALLAAMREGHHHHHH | soluble
12 | MSLSKILPVVTACLLATTMGASASSIPEKASVCSGCHGQDGMGQPNIAPMIAGLNANYLNTQIELFLSGERQNVVMQGMAKELSDPAVRKEVMNYFANLPSYEFTNPEQRGDQADIRNPYRKLIFQGDWDRNIPACATCHGASGMGVDKFPRLASQHADYLKTQLMAWKIGTRSGDPLNMMGTIAKNLTDEEIENLSYYFASLRYEGHHHHHH | not soluble
13 | MSLSKLGYIPNQAARTLITNKTLTIGLIQKSSAPEIRQNPFNSDVLNGINQACNVRGYSTRMTVSENSGDLYHEVKTMIQSKSVDGFILLYSLKDDPIEHLLNEFKVPYLIVGKSLNYENIIHIDNDNIDAAYQLTQYLYHLGHRHILFLQESGHYAVTEDRSVGFKQYCDDVKISNDCVVIKSMNDLRDFIKQYCIDASHMPSVIITSDVMLNMQLLNVLYEYQLRIPEDIQTATFNTSFLTENATPSQTSVNINPDVLGFTAGNTIIDVLRNETISFREKLISTQIVERVSTTKIEGHHHHHH | soluble
14 | MSLSKNNETLEALSKEYRDTIPADLRKTNTFDWYLQQLYDEPKIARNAHQRVADMFDYYGKSYDEEAGVVEYELASEDPLHDGENTFYGRVIHEAMHEFVNKVKSGARGLGPEKRIKLLLGPVGSGKSDFDRQVRRYFEDYTSRDEGRMYTFRWTNLCDVIHDQDPADDVVRSPMNQDPLVLLPQAQRDKVIEDINAELDAPYTIRNEQSLDPASEFYMDRLLAEYDDDLQAVLENHVEIVRFVADENQRRGIETFEPKDKKNQDETELTGDVNYSKIAIYGESDPRAFDYSGAFCNANRGIFSGEELLKLQREFLYDFLHASQEQTIKPKNNPRIDIDQVIVGRTNMPEYRDKKGDEKMEAFNDRTKRIDFPYVLQYEAEANIYQKMLRNADLPDIQVEPHTLEMAGLFGVLTRIEEPDNESIDLVQKAKAYNGEIDEADDVDVKKLREEAEKMADIGEGMDGVSPRFIGDEIAEAIMDSMHRSRDFLSPLTTFNHLEGNLENHGSIDEESFSKYYRFLELVREEYKERAIEDVRHALAYDMDEIQRQGEKYMDHVMAYIDDATVEDELTGREQEPDEQFLRSVEEKLNLPEDRKDDFRQEVSNWVSRRAREGDTFNPQDNDRLRRALERKLWEDKKHNINFSALVSSSEMDDEERNQWVDALIEQGYSEEGAKEVLEFAGAEVAKSEMEEEGHHHHHH | soluble
15 | MSLSKVYLVPTPIGNLGDITLRALEVLKNVDLIAAEDTRQTLKLLNHFEIKKPLISYHKHNEQGKGEEILRRVKEGTSVAIVSDAGTPGISDPGSVVVEKCIEEGIEFEVLPGATAFTTALIYSGLDTTKFMFKGFFPRENKDKRSFIEDIKDRTETIIIYESPYRILDTIDTLKEGLGNRKVAICRELTKLHEEIFRGTLEEAKIHFEENAPKGEFVCVISGKTDKEIEEENTSKWISMSIEEHIIHYIDNEGMKKKDAIKQVAKDRGVAKSEIYKFSLDEGHHHHHH | soluble
16 | MSLSLLLSILCMTQAKDRIVERPPFLAQSSSSIEIDKIVMSDTVTTVYIKAFYRPKYWIKIATGSVLKDNNGNLYPVRKGIGITLDKEFWMPESGEAEFQLTFPPIPQNVTCLDFSEGDFEGAYKIWGIQLDKKTFSKFKLPKDVTVTKADHKTTLPEPVVKYAKAILKGRILDYQKGMPNKGSLYFQDVIRDEAQEGKIRIQDDGTFYHEMNVFMVTPCMIRFPFGAVSYLLAPGETTSVVINLRENARKQSHLRQAEKPYGKEIYYGGYLAGVQQELADHPMSFSFTEGNSYEEYQQQIKKLNGKTAEEYKAQILARLPEFRKQITQSKGSPAYKEIINTDLELSAALKIIETERNLKLVHIMTNGLEGEKANKYYAETKIDIPQGYYESLQDFTYILSPKACYNSRYPILFDIIRRIGIDDKILKSLSNHTAASYLIQNPKAQMIGVSMRDLNPLNDKQKAELSTMPAAYNDMALAMNNDLLKQIEINKKKTGFTVNETGEVSNEDLFPSIISKFRGHTLLVDFWATWCGPCRSANKQILPMKEELKDKDIIYLYITGETSPLGTWKNMIPDIHGEHFRVTDEQWSYLREKFSIRGVPTYFVIDKEGNITYKQTGFPGVDTMKEQLMKALEKEGHHHHHH | soluble
17 | MSLSLWWKRAKARMTESVTYYQEPAFEKLLPDPDPTFERPYTLCLSLDDLLIHSEWTREHGWRIAKRPGVDYFIRYLSQYYELVLFTTTPYATGEPVMRKLDPFRLILWPLYREATKFEDGEIVKDLSYLNRDLSKVIIIDTKAKHVRNQPDNAIILDPWKGDKDDKNLVNLIPFLEYIHTMQYSDVRKVIKSFDGKDIPTEGHHHHHH | not soluble
